# Paper PMC12852372, “Phosphorylation-driven conformational switching of the ArnA–ArnB complex involved in archaeal motility regulation” (Frontiers in Microbiology, 2025)
# B1: ArnA (Saci_1210) (natural protein, Sulfolobus acidocaldarius)
# chain: TWKCNLCGYENDDDALFCIKCGAQKSSEAQQLPQQQPSEPQAQGVVTQQQVVTNPPVQAQVATPQQPAQQPVLPQPEPAQPQPVSSTPAPQQASQPTNRYYIYFIQTPNENLVNKKVLLNFDLFPSVSMGRSPENIVIVPDSEVSRKHAVIYLDNSELYIEDLNSTNGTYVYDGKQFTPIKGKQKIEPNSIIKLGNQTIVRILKE
# notes: ArnA of Sulfolobus acidocaldarius, Saci_1210; N-terminal zinc-finger (ZnF) domain, disordered linker (S28-N99) and C-terminal FHA domain; In the crystal (PDB 8S05) only the ZnF domain (P16-K42) is defined by density; also called StrepII-tagged ArnA; source: E. coli BL21(DE3) Rosetta; purified (heat treatment, Ni-NTA, SEC) for crystals, SAXS and HDX-MS; co-expressed with His6-ArnB, in lysate, for …
# Biological target: T1, phosphorylated ArnB (ArnB~P), phosphorylated by the kinase ArnC (Sulfolobus acidocaldarius, UniProt Q4J9H3 2-380, phosphothreonine at T353, T363 and T375 (almost complete within the first 5 min with ArnC); phosphothreonine at T322 and T335 only after 15 min)
# T1 construct: ArnB of Sulfolobus acidocaldarius, Saci_1211; also called tagged ArnB; source: E. coli BL21(DE3) Rosetta; phosphorylated by ArnC in the mixed lysate (ATP, MnCl2, 55 °C, 5-60 min); in lysate for the pull-downs; purified (Ni-NTA, SEC) for HDX-MS; not shown: His6, C-terminal, kept
# T1 sequence: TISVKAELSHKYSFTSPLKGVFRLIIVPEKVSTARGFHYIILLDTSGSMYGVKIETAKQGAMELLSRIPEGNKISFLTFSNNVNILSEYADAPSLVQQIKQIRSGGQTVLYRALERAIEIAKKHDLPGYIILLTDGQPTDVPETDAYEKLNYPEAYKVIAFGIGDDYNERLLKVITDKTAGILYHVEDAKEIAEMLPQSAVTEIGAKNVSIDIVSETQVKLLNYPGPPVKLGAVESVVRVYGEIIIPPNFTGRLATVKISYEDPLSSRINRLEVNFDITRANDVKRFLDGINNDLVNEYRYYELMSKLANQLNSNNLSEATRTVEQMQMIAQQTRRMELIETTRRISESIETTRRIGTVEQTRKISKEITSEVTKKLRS
# Experiment: HDX-MS; ArnA, ArnB, ArnB~P and ArnA/ArnB~P (isolated by Ni-NTA via the His6 tag of ArnB, then SEC); 50 μM stocks in 20 mM Tris-Cl pH 8.0, 150 mM NaCl; 25 °C; 10-10,000 s
# Conditions: both partners purified
binder,measurement,value
B1,binding result,binds
